The text below walks through data of US20190169249A1 (SHATTUCK LABS, published 2019).

Assay [1] concerns the target T1, CSF1R-Fc (commercially available, single-sided control protein) (UniProt P07333 20-512, limits assumed).
T1 construct: Recombinant control protein; not shown: Fc part of the bought protein; not described
Description: SPR, BioRad ProteOn XPR 360. On the procedure:
The binding affinity of the different domains of the hCSF1R-Fc-CD40L chimeric protein was measured by the surface plasmon resonance (SPR) using the BioRad ProteOn XPR 360 system. Specifically, the affinity of the chimeric protein for human CSF1 and CD40 was determined and compared to recombinant control proteins, and the results are shown in the Table below: […]

Another assay concerns the target T2, CD40-His (human, UniProt P25942 21-193).
T2 construct: Octet (biolayer interferometry) reagent; also called recombinant human CD40; not shown: His tag
Description: bio-layer interferometry (Octet); ligand column: hCD40-his.

Assay [2] concerns the target T3, murine CD40 overexpressed on CHO-K1 cells (CHOK1/CD40) (murine, UniProt P27512 20-289).
T3 construct: whole, on cells; also called mCD40
T3 sequence (looked up): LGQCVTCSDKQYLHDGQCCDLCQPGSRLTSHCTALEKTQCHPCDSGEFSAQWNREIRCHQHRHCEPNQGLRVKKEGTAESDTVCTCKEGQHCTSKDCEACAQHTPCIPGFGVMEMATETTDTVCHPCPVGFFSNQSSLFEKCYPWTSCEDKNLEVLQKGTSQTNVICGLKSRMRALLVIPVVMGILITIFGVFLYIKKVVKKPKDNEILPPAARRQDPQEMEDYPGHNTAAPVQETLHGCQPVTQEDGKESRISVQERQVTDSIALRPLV
As to the kind of experiment: flow cytometry on CHOK1/CD40 cells; CHOK1/CD40 cells, flow cytometry. On the procedure:
For cell binding assays, immortalized cell lines were engineered to stably express CD40 (CHOK1/CD40). Increasing concentrations of the murine CSF1R-Fc-CD40L chimeric protein were incubated with the over-expressing (CHOK1/CD40) cell line for 2 hours. Cells were collected, washed, and stained with antibodies for the detection of chimeric protein binding by flow cytometry.
As a negative control, there was no detectable binding to the parental (non-CD40 expressing) CHOK1 cell line.
(In general: In flow cytometry, cells or beads pass a laser one at a time.)

T1 sequence (P07333 20-512 limits assumed): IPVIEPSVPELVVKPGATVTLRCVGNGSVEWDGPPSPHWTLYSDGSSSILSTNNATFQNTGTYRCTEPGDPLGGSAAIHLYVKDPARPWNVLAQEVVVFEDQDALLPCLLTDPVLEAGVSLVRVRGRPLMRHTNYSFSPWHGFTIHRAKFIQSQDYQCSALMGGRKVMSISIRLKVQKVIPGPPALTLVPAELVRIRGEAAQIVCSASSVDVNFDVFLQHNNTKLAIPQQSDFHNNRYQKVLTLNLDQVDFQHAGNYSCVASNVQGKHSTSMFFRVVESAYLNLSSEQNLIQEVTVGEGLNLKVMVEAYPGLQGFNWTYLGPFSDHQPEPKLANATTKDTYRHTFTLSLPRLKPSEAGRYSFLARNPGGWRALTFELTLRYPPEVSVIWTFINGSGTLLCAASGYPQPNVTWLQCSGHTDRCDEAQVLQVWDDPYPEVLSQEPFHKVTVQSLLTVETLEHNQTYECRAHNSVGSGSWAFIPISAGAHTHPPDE
T2 sequence (P25942 21-193 limits assumed): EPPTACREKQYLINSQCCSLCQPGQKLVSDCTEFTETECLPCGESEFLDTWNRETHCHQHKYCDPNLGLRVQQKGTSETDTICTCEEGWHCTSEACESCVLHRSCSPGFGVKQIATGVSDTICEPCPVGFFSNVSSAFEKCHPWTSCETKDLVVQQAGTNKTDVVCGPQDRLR

B1: recombinant human CSF1 protein (ligand, UniProt P09603 33-190, looked up)
chain: EEVSEYCSHMIGSGHLQSLQRLIDSQMETSCQITFEFVDQEQLKDPVCYLKKAFLLVQDIMEDTMRFRDNTPNAIAIVQLQELSLRLKSCFTKDYEEHDKACVRTFYETPLQLLEKVKNVFNETKNLLDKDWNIFSKNCNNSFAECSSQDVVTKPDCN
notes: the construct is not described
Take B1: in assay [1], the Kd (commonly the free concentration of one partner at which half of the binding sites on the other are occupied at equilibrium, for simple one-to-one binding) turned out to be 0.275 nM; the koff (commonly a measure of how fast the partners let go of each other) was 0.000335 s⁻¹; the kon (commonly the rate constant with which the complex forms) was 1.22e+06 M⁻¹ s⁻¹.

B2: CD40L-Fc (commercially available, single-sided control protein) (Fc fusion, UniProt P29965 113-261, looked up)
chain: MQKGDQNPQIAAHVISEASSKTTSVLQWAEKGYYTMSNNLVTLENGKQLTVKRQGLYYIYAQVTFCSNREASSQAPFIASLCLKSPGRFERILLRAANTHSSAKPCGQQSIHLGGVFELQPGASVFVNVTDPSQVSHGTGFTSFGLLKL
notes: Recombinant control protein; not shown: Fc part of the bought protein
In the case of B2, in the assay with CD40-His, binding was put at a Kd of 2.42 nM.

B3: murine CSF1R-Fc-CD40L chimeric protein (Fc fusion)
chain (part 1 of 2): APVIEPSGPELVVEPGETVTLRCVSNGSVEWDGPISPYWTLDPESPGSTLTTRNATFKNTGTYRCTELEDPMAGSTTIHLYVKDPAHSWNLLAQEVTVVEGQEAVLPCLITDPALKDSVSLMREGGRQVLRKTVYFFSPWRGFIIRKAKVLDSNTYVCKTMVNGRESTSTGIWLKVNRVHPEPPQIKLEPSKLVRIRGEAAQIVCSATNAEVGFNVILKRGDTKLEIPLNSDFQDNYYKKVRALSLNAVDFQDAGIYSCVASNDVGTRTATMNFQVVESAYLNLTSEQSLLQEVSVGDSLILTVHADAYPSIQHYNWTYLGPFFEDQRKLEFITQRAIYRYTFKLFLNRVKASEAGQYFLMAQNKAGWNNLTFELTLRYPPEVSVTWMPVNGSDVLFCDVSGYPQPSVTWMECRGHTDRCDEAQALQVWNDTHPEVLSQKPFDKVIIQSQLPIGTLKHNMTYFCKTHNSVGNSSQYFRAVSLGQSKQLPDESLFTP
chain (part 2 of 2): HRRLDKVEEEVNLHEDFVFIKKLKRCNKGEGSLSLLNCEEMRRQFEDLVKDITLNKEEKKENSFEMQRGDEDPQIAAHVVSEANSNAASVLQWAKKGYYTMKSNLVMLENGKQLTVKREGLYYVYTQVTFCSNREPSSQRPFIVGLWLKPSSGSERILLKAANTHSSSQLCEQQSVHLGGVFELQAGASVFVNVTEASQVIHRVGFSSFGLLKL
notes: 'constructed as described above in the Detailed Description and in U.S. 62/464,002'; also called mCSF1R-Fc-CD40L; mCD115-Fc-CD40L; not shown: Fc linker
For B3, in assay [2], the EC50 (usually the concentration giving half of the maximal effect) is 91.1 nM.
